# According to IntAct's records for PubMed 25616961:
# B1: Heterogeneous nuclear ribonucleoprotein A1 (Homo sapiens), P09651-2 (parent)
# chain: MSKSESPKEPEQLRKLFIGGLSFETTDESLRSHFEQWGTLTDCVVMRDPNTKRSRGFGFVTYATVEEVDAAMNARPHKVDGRVVEPKRAVSREDSQRPGAHLTVKKIFVGGIKEDTEEHHLRDYFEQYGKIEVIEIMTDRGSGKKRGFAFVTFDDHDSVDKIVIQKYHTVNGHNCEVRKALSKQEMASASSSQRGRSGSGNFGGGRGGGFGGNDNFGRGGNFSGRGGFGGSRGGGGYGGSGDGYNGFGNDGSNFGGGGSYNDFGNYNNQSSNFGPMKGGNFGGRSSGPYGGGGQYFAKPRNQGGYGGSSSSSSYGSGRRF
# Variants of: B1
# Conditions: with ubql2_human UBQLN2, Q9UHD9
# Chain of ubql2_human UBQLN2, Q9UHD9 (Q9UHD9 whole entry): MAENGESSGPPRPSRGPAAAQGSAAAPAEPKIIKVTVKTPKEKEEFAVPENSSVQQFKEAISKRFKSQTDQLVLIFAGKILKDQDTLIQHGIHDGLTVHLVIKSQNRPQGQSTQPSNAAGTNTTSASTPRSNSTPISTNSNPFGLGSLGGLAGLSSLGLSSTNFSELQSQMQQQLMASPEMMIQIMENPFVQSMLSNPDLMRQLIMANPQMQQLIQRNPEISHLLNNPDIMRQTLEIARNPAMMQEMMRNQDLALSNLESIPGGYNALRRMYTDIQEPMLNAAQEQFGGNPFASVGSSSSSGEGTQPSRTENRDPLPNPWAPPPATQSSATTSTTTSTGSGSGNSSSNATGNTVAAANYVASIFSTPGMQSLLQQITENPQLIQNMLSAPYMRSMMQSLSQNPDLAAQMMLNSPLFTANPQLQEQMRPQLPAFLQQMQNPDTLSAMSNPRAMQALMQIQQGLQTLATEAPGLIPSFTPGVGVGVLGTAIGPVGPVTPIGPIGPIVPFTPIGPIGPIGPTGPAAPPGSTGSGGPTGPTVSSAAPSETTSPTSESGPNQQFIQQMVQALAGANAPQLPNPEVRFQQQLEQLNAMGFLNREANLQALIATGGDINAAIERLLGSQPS
row,effect of a mutation on the interaction,Variant
1,decreasing interaction,D262V
